Laboratory results: the supplement of paper PMC10567573
± gives the standard deviation.

Experiment: protein stability index of a GFP-peptide fusion (GPS, HEK-293T) (PSI 1-6); higher = more stable
Conditions: c terminus: a fixed tail appended
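Note: 24-mer peptide tiles fused after GFP, lentivirally expressed, FACS-sorted into six equal bins by GFP/DsRed ratio, decoded by Illumina sequencing, PSI is the read-weighted mean bin number.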

Row | Sequence | protein stability index (treatment: DMSO) | protein stability index (treatment: MLN4924 1 uM, 8 h)
1 | YESHSTSELEDLTEPEQRELKTKL [TPD52L3] | 5.63 ± 0.13 | 5.52 ± 0.11
2 | LASSLGNLNAATDDPENKKTSSSS [CDC14A] | 5.43 ± 0.15 | 5.53 ± 0.15
3 | RQARKKGRHLELANQKLSEKLAAG [CCDC3] | 4.777 ± 0.006 | –
4 | LSQAPAEGPDLVPAALGSLTTAQI [HES6] | 4.35 ± 0.32 | 4.36 ± 0.61
5 | LNKELNENQLVRKQDVLGPSTTPP [SASS6] | 5 ± 0.2 | 5.1 ± 0.071
6 | LPYLEHVGHNHTYNMAPSALDSAD [NFE2L1] | 4.42 ± 0.15 | 4.44 ± 0.11
7 | KNLYTNEYVAIKLEPMKSRAPQLH [CSNK1G3] | 2.55 ± 0.28 | 2.5 ± 0.13
8 | LSTFSVPYFLFQHWATGYSKSSHP [SOAT1] | 2.11 ± 0.4 | 2.56 ± 0.79
9 | RTVNALEIELQAQHNLRDSLENTL [KRT34] | 3.41 ± 0.064 | 3.64 ± 0.42
10 | LHRLKFLGFARRNWGNGKRPNLET [GDAP1] | 2.22 ± 0.32 | 2.44 ± 0.45
11 | MAEQSDEAVKYYTLEEIQKHNHSK [CYB5A] | 5.31 ± 0.24 | 5.28 ± 0.19
12 | DEGEEFDDWEDDYDYPEEEQLSGA [EID1] | 5.39 ± 0.22 | 5.3 ± 0.22
13 | VTLGGVLRQQLVVSKELRMYDEKA [KLHL13] | 2.95 ± 0.25 | 3.02 ± 0.41
14 | RHDSETEDMLWDDLLHGPECRSSV [PHTF1] | 4.68 ± 0.24 | 4.7 ± 0.2
15 | ALKEELLFMKKNHEEEVKGLQAQI [KRT18] | 3.79 ± 0.36 | 3.95 ± 0.28
16 | RMENVTVLGEDVIVNDELYLNGAS [GMPPB] | 4.09 ± 0.072 | 4.1 ± 0.29
17 | SGRVKRERDREREPEAASSRGSPV [USP39] | 5.12 ± 0.18 | 5.33 ± 0.11
18 | LPGRKLVSSAVSPSIIPQEDPSQQ [INTS4] | 5.12 ± 0.12 | 5.02 ± 0.32
19 | PHVALAVRYNRVGILRRILRTLRD [ANKRD9] | 2.73 ± 0.073 | 2.84 ± 0.3
20 | ERCSDSDEEKKARRGRSPKGEFKD [CLINT1] | 5.43 ± 0.27 | 5.3 ± 0.51
21 | LFRKDVDDATLSRLELERKIESLM [PRPH] | 3.06 ± 0.22 | 3.33 ± 0.29
22 | RVFSQGSHAWEVALGGLQSWRVGV [TRIM35] | 2.46 ± 0.42 | 2.31 ± 0.38
23 | ATYRRLLEGEDAHLSSQQASGQSY [KRT16] | 4.46 ± 0.22 | 4.4 ± 0.29

Row | Sequence | protein stability index (treatment: DMSO) | protein stability index (treatment: MLN4924 1 uM, 8 h)
24 | NVQRLAEPSQMLKHAVVNLINYQD [CTNNB1] | 2.66 ± 0.18 | 2.83 ± 0.12
25 | LQFLYTGQLDEKEKDLVGLAQIAE [RHOBTB1] | 2.38 ± 0.29 | 2.83 ± 0.25
26 | SSYFDSFQEAQIKRKARNEGRNRR [CDKL4] | 3.93 ± 0.76 | 4.96 ± 0.35
27 | PDLRQDFNMMEQKKRVSMILQSPA [ADD1] | 3.7 ± 0.32 | 3.78 ± 0.23
28 | ISQEEFARQLQLSDPQTVAGAFGY [LPCAT4] | 3.41 ± 0.43 | 3.09 ± 0.41
29 | DKWVNDPHRMDRRLLALIYLAHAS [GOLPH3] | 2.63 ± 0.91 | 2.1 ± 0.31
30 | AQSPGAVEEILDRENKRMADSLAS [BET1L] | 5.12 ± 0.14 | 5.35 ± 0.26
31 | ALGILIFEMLSGFPPFFDDNPFGI [PRKX] | 3.11 ± 1.7 | 3.31 ± 0.25
32 | ELAEHRCHPVERGIKSKEAEEYRL [PSD2] | 4.89 ± 0.25 | 4.64 ± 0.36
33 | RADPLVCATGLLGSAPFLFLSLAC [SPNS1] | 3.37 ± 0.32 | 3.04 ± 0.22
34 | FQAPCQRCGKFLQDGLPPTWRDFR [MED27] | 2.56 ± 0.72 | 2.28 ± 0.33
35 | IGPPSAAAIFKIYLSCLEELMKCQ [TRIP13] | 2.16 ± 0.31 | 2.21 ± 0.34
36 | NSSTWGSLKQALKGLSVEFALLAD [SNX8] | 2.39 ± 0.55 | 2.45 ± 0.36
37 | FVQVKGNFARLQTCISELRMLQRE [M1AP] | 2.47 ± 0.75 | 2.11 ± 0.22
38 | MSHKQIYYSDKYDDEEFEYRHVML [CKS1B] | 2.52 ± 0.17 | 2.66 ± 0.18
39 | EELCAQSARCVVSFNILVEDRVKL [PCDHGA10] | 2.57 ± 0.19 | 2.21 ± 0.4
40 | APAMYDDESAIDFSAYIDSMAAVP [CEBPD] | 4.32 ± 0.27 | 3.62 ± 0.15
41 | VPSSGYGAVTASKHSNSPPLVTPP [SMTNL2] | 4.29 ± 0.14 | 4.16 ± 0.15
42 | PKGSLSMGPAPRARPWTRDSASLP [RASAL3] | 3.81 ± 0.13 | 4.04 ± 0.4
43 | DLGLAPRELAERGVRIVSRGRTQL [PCDHGA10] | 3.75 ± 0.16 | 3.81 ± 0.25
44 | NNKLKLQQKLVIDTVTEVTARMEM [CBY2] | 2.94 ± 0.53 | 2.89 ± 0.41
45 | LSLIGVRVDVDTYLTSQLPPLREI [NFE2L1] | 3.12 ± 1.1 | 2.57 ± 0.58
46 | QLVLVAAGFDALQGDPKGEMAATP [HDAC6] | 2.75 ± 0.057 | 2.8 ± 0.43

Row | Sequence | protein stability index (treatment: DMSO) | protein stability index (treatment: MLN4924 1 uM, 8 h)
47 | GHVLLTDSEFSMQEPMVPAKLGTQ [PPFIA4] | 4.31 ± 0.1 | 3.94 ± 0.26
48 | LYPSLNVTSFDSVVPEKLDDLVPK [ALG2] | 4.32 ± 0.14 | 4.42 ± 0.11
49 | KPGNNEGSGAPSPLSKSSPATTVT [SNAP91] | 5.21 ± 0.11 | 5.1 ± 0.13
50 | GAFDSQSTVKDCATIFALSTMTSS [ATL3] | 3.01 ± 0.25 | 3.19 ± 0.27
51 | LPAEARERSRGRSISRGRHARTHP [MATN2] | 5.05 ± 0.5 | 5.17 ± 0.23
52 | LAARRQWRDECLMRLAKLKSQVQP [CRYL1] | 2.35 ± 0.36 | 2.52 ± 0.79
53 | VSEAGGSGRLSASWEPLSGPSTPS [FCHO1] | 4.54 ± 0.17 | 4.74 ± 0.2
54 | QLILFGLSNQLAVTFREENTIAFR [MCOLN1] | 2.65 ± 0.49 | 2.33 ± 0.64
55 | VYHPSPEESRDPTLYANNVQRVMA [LPCAT4] | 3.6 ± 0.13 | 3.81 ± 0.12
56 | VVSSEGRQSRRQSVSRFFADSGAD [FBF1] | 4.25 ± 0.11 | 4.44 ± 0.31
57 | NLSYKQVKTWFQNQRMKSKRWQKN [NANOGP8] | 2.54 ± 0.23 | 2.57 ± 0.33
58 | VVDKETDNMYRLAHFSPFLYYQSQ [PDZK1] | 2.62 ± 0.35 | –
59 | CLQQKQVVAEAQTRVSQLGLQVEG [LRRC45] | 3.86 ± 0.24 | 3.8 ± 0.38
60 | MYEEEMEREEITTKKRKLGKNPDV [FAM50A] | 4.94 ± 0.57 | 5.14 ± 0.44
61 | LRDIRAQYESIAAKNLQEAEEWYK [PRPH] | 4.24 ± 0.24 | 4.33 ± 0.41
62 | AGGSSSTPTPQALYPDLSCPEGLE [SPSB2] | 5.15 ± 0.31 | 5.21 ± 0.25
63 | CLETLPEFRDDRDLVMALSAGGHG [KCNA4] | 3.68 ± 0.26 | 3.51 ± 0.34
64 | MDYDSYQHYFYDYDCGEDFYRSTA [MYCL] | 2.75 ± 0.35 | 2.51 ± 0.26
65 | TMQLFSKQNPSRQEVTKLQQQVKT [FBXO28] | 3.74 ± 0.2 | 3.75 ± 0.28
66 | DVTSGDHGDYFRLLLPGIYTVSAT [CPN1] | 2.29 ± 0.57 | 2.02 ± 0.23
67 | NSNLEEPLNPKPHKKKSPGEKPHR [ZNF449] | 5.47 ± 0.23 | 5.45 ± 0.2
68 | AEGTTGLAPAGQTSEESRPRLSQL [TNXB] | 5.66 ± 0.21 | 5.36 ± 0.25
69 | PRPDMAPELTPEEEQATKQFLEEI [PTPN9] | 5.12 ± 0.48 | 5.08 ± 0.62

Row | Sequence | protein stability index (treatment: DMSO) | protein stability index (treatment: MLN4924 1 uM, 8 h)
70 | HVAPLLAAAGLHASPMSADRVVAF [NR2F2] | 2.27 ± 0.43 | 2.24 ± 0.27
71 | EETESSDDVEVLTLKKFKGDLAYR [C8orf76] | 4.71 ± 0.19 | 4.61 ± 0.16
72 | SGRFIVIIPRTVIDGLDLLKKEHP [SMG5] | 2.9 ± 0.55 | 3.31 ± 0.78
73 | FFKGGGSSKSRAAPSPQEALVRLR [CHMP4C] | 3.26 ± 0.053 | 3.33 ± 0.052
74 | KEQEETIQRIDENVLGAQLDVEAA [STX5] | 5.52 ± 0.22 | 5.4 ± 0.34
75 | NDINILRVSNPGRLAELLLLETDA [GADD45A] | 2.31 ± 0.19 | 2.5 ± 0.5
76 | CCIVTSTYGWTANMERIMKAQALR [HSP90AB1] | – | 2.42 ± 0.4
77 | ERQLKVMASDHREALLDRESENAS [LRRC45] | 5.41 ± 0.3 | 5.33 ± 0.18
78 | EAKSAQPADGWKGERPRSEEDNEL [GCH1] | 5.56 ± 0.098 | 5.35 ± 0.16
79 | HSIALSTFASLIGPFGGFFASGFK [CDS1] | 2.57 ± 0.61 | 2.64 ± 0.69
80 | YKAKSRSPGSPVGEGTGSPPKWQI [ADD1] | 3.5 ± 0.28 | 3.76 ± 0.33
81 | EREKVTPLMVKGFRDAAEEGGTAV [SEPHS2] | 5.24 ± 0.18 | 5.12 ± 0.16
82 | PTAATTQNPVLSKLLMADQDSPLD [LCOR] | 4.9 ± 0.17 | 4.87 ± 0.19
83 | KLLHIYYQNSIDDRLLVERIFAQY [PDS5B] | 2.68 ± 0.63 | 3.39 ± 0.59
84 | DSGQYWPSVYHAMPSPCSCMSFNP [WDFY2] | 2.37 ± 0.19 | 2.31 ± 0.44
85 | FTEAMTHFPASPFWSVMFFLMLIN [SLC6A17] | 2.36 ± 0.23 | 2.14 ± 0.56
86 | GELSQARGQEPARADQLCQQELRE [PRPH] | 5.26 ± 0.56 | 5.56 ± 0.085
87 | AEDTEKKDEPSKYNQQQALIDQRY [CEP70] | 5.2 ± 0.31 | 5.36 ± 0.059
88 | IYRKREEKRNAGNAVRSAMKSEEQ [KMT5A] | 4.47 ± 0.17 | 4.39 ± 0.25
89 | VSRMRTQRAFSIQTPEQYYFCYKA [PTPN9] | 2.56 ± 0.18 | 2.43 ± 0.27
90 | CEFSSERGPRMCRFIRERDRAVND [CDC25B] | 3.51 ± 0.22 | 3.52 ± 0.17
